Reference: patent publication US8067155B2, “Receptor tyrosine kinase assays” (DiscoveRx Corporation, priority 2008, dated 2011)

Experiments:
TrkC = target: T1, TrkC (Homo sapiens, UniProt Q16288); test: PathHunter TrkC-PK / SH2-containing protein-EA assay in U2OS cells, agonist mode; type: cell-based; settings: 3 hours at room temperature
T1 construct: host or cells: U2OS
Description: FIG. 8 is a graph of the dose response in U2OS cells of TrkC fused to a low affinity small fragment of β-galactosidase (TrkC-PK). Cells were plated in a 384-well plate at 10,000 cells/well, stimulated with NT3 (Peprotech, Cat #/450-03), a known ligand for TrkC, for 3 hours at room temperature according to the assay procedure provided. Following stimulation, detection reagents were added and signal was detected after 1 hour using the PathHunter® Detection Kit (93-0001).
(§1) Generally, the expression constructs for the fusion proteins includes at least (in order of 5′ to 3′) a promoter, followed by the receptor or SH2 domain, followed by a linker, followed by either the EA or PK. […] SH2-EA complex formation with the RTK was detected with 50% (v/v) of PathHunter® Detection Reagent (Dx 93-0001, PathHunter reagents are available from DiscoveRx, Corp., Fremont, Calif.) (Lysis buffer active ingredient 1% CHAPS, Emerald II™ and Galacton Star™ are from Applied Biosystems).
(§2) 10K cells/well TrkC-PK SH2-containing protein-EA double stable cells were plated in a 384-well plate, stimulated with NT3 (Peprotech, Cat #/450-03), a known ligand for TrkC for 3 hours at room temperature according to the assay procedure provided. Following stimulation, detection reagents were added and signal was detected after 1 hour using the PathHunter® Detection Kit (93-0001).

insulin receptor (INSR) = target: T2, insulin receptor (INSR) (Homo sapiens, UniProt P06213); test: PathHunter INSR-PK / SH2-containing protein-EA assay in U2OS cells, agonist mode; type: cell-based; settings: U2OS INSR-PK cells, 10,000 cells/well, 3 hours at room temperature
T2 construct: host or cells: U2OS

[1] = target: TrkB fused to a low affinity small fragment of β-galactosidase (TrkB-PK) (UniProt Q16620); test: cell-based or functional assay
[2] = target: TrkC fused to a low affinity small fragment of β-galactosidase (TrkC-PK) (UniProt Q16288); test: cell-based or functional assay
[3] = target: G-CSFR (granulocyte-colony stimulating factor receptor) fused to a low affinity small fragment of … (UniProt Q99062 25-836, tyrosine-phosphorylated on activation (by Jak2); sites not stated); test: cell-based or functional assay
G-CSFR (granulocyte-colony stimulating factor receptor) fused to a low affinity small fragment of …, sequence (Q99062 other isoform, or with tags, fused parts or gaps): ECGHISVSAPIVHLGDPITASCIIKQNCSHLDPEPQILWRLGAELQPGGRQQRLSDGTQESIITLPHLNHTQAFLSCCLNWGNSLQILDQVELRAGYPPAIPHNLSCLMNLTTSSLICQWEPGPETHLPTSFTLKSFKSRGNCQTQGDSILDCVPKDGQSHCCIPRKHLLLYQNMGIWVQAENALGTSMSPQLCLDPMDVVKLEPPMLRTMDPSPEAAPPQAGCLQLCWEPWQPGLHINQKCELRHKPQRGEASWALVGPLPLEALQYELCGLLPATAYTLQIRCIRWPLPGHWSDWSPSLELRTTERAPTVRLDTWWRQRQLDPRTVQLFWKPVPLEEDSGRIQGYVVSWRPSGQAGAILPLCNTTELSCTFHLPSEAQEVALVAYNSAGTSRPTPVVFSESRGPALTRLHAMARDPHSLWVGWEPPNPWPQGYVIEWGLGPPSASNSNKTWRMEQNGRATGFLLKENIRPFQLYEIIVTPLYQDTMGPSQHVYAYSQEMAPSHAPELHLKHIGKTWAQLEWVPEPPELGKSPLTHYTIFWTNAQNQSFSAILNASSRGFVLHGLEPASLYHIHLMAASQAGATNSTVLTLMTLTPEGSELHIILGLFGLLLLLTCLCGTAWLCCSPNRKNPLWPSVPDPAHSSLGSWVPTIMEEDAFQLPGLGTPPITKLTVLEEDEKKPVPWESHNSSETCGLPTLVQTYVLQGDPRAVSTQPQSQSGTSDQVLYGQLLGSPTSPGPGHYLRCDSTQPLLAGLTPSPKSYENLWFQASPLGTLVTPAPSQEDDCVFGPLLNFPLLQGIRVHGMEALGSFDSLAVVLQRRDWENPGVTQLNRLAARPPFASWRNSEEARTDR

TrkB = target: T3, TrkB (Homo sapiens, UniProt Q16620); test: PathHunter TrkB-PK / SH2-containing protein-EA assay in U2OS cells, agonist mode; type: cell-based; settings: 3 hours at room temperature
T3 construct: host or cells: U2OS
Description: FIG. 7 is a graph of the dose response in U2OS cells of TrkB fused to a low affinity small fragment of β-galactosidase (TrkB-PK). Cells were plated in a 384-well plate at 10,000 cells/well stimulated with BDNF (Peprotech, Cat #/450-02), a known ligand for TrkB, for 3 hours at room temperature according to the assay procedure provided. Following stimulation, detection reagents were added and signal was detected after 1 hour using the PathHunter® Detection Kit (93-0001).
as §1
as §2, with “cells/well TrkB-PK” for “cells/well TrkC-PK”, “stable cell” for “stable cells”, “with BDNF” for “with NT3”, “Cat #/450-02),” for “Cat #/450-03),”, “for TrkB” for “for TrkC”

“NT3: NT3 (Peprotech, Cat 450-03), a known ligand for TrkC” was tested, and the EC50 (TrkC; U2OS TrkC-PK cells, 10,000 cells/well) was 7 ng/mL and the assay window (TrkC; U2OS TrkC-PK cells) was 8.1 fold.

With “IGF1: IGF1 (Peprotech, Cat AF-100-11), a known ligand for IGF1R” the EC50 (insulin receptor (INSR)) was 2.0 ng/mL.

In the case of “BDNF (Peprotech, Cat #/450-02) (from UniProt P23560 129-247) (ligand)”, the EC50 of the BDNF dose response (PathHunter β-galactosidase complementation of TrkB-PK and SH2-containing protein-EA in U2OS cells) [1] is reported as 4.21 ng/mL and the assay window of the BDNF dose response (PathHunter β-galactosidase complementation of TrkB-PK and SH2-containing protein-EA in U2OS cells) [1] is reported as 4 fold.

In the case of “NT3 (Peprotech, Cat #/450-03) (from UniProt P20783 139-257) (ligand)”, the EC50 of the NT3 dose response (PathHunter β-galactosidase complementation of TrkC-PK and SH2-containing protein-EA in U2OS cells) [2] is reported as 7 ng/mL and the assay window of the NT3 dose response (PathHunter β-galactosidase complementation of TrkC-PK and SH2-containing protein-EA in U2OS cells) [2] is reported as 8.1 fold.

B1: G-CSF (Peprotech 300-23) (ligand, UniProt P09919-2 31-204, looked up)
chain: TPLGPASSLPQSFLLKCLEQVRKIQGDGAALQEKLCATYKLCHPEELVLLGHSLGIPWAPLSSCPSQALQLAGCLSQLHSGLFLYQGLLQALEGISPELGPTLDTLQLDVADFATTIWQQMEELGMAPALQPTQGAMPAFASAFQRRAGGVLVASHLQSFLEVSYRVLRHLAQP
With B1 the “EC50 of the G-CSF dose response (PathHunter β-galactosidase complementation of CSF3R-PK and SHC1-EA in U2OS cells, Jak2 construct)” value [3] was 4 ng/mL and the “assay window of the G-CSF dose response (PathHunter β-galactosidase complementation of CSF3R-PK and SHC1-EA in U2OS cells, Jak2 construct)” value [3] was 7 fold.

B2: BDNF: BDNF (Peprotech, Cat 450-02), a known ligand for TrkB (protein, UniProt P23560 19-247, looked up)
Neurotrophic factor BDNF …: APMKEANIRGQGGLAYPGVRTHGTLESVNGPKAGSRGLTSLADTFEHVIEELLDEDQKVRPNEENNKDADLYTSRVMLSSQVPLEPPLLFLLEEYKNYLDAANMSMRVRRHSDPARRGELSVCDSISEWVTAADKKTAVDMSGGTVTVLEKVPVSKGQLKQYFYETKCNPMGYTKEGCRGIDKRHWNSQCRTTQSYVRALTMDSKKRIGWRFIRIDTSCVCTLTIKRGR
B2 was tested, and the EC50 (TrkB; U2OS TrkB-PK cells, 10,000 cells/well) was 4.21 ng/mL and the assay window (TrkB; U2OS TrkB-PK cells) was 4.0 fold.
